From the RNAGym collection of RNA variant scans (doi:10.1073/pnas.2313332121)

B1: TPR t1 (parent)
chain: GACCAAUCUGCCCUCAGAGCUCGAGAACAUCUUCGGAUGCAGAGGAGGCAGGCUUCGGUGGCGCGAUAGCGCCAACGUCCUCAACCUCCAAUGCAUCCCACCACAUGAUGAUGCCUGAAGAGCCUUGGUUUUUUG

Variants of: B1
Assay: polymerase ribozyme fitness, log enrichment relative to wild type (log ratio); higher = more active; in vitro selection for triplet polymerase activity
Procedure, shortened: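 Libraries of mutants in each subunit of a heterodimeric triplet polymerase ribozyme were generated by PCR and transcribed. In triplicate, each went through one in vitro selection round: annealing with biotinylated primer, partner subunit and triplets; frozen incubation at −7 °C; gel excision of extended constructs; streptavidin-bead capture; RT-PCR. Fitness, taken from Illumina sequencing of input and output libraries, is the logarithm of a genotype's enrichment over wild-type enrichment, averaged across replicates with inverse-variance weights. The logarithm is base 2, and genotypes needed ≥10 input reads and ≥1 read per output to be kept.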

Variant | polymerase ribozyme fitness (log ratio)
U14C C53G A74C A83G C94U | -2.55
C13U G44A C49U C86G C102U U106G U112G A121C U131A U133A | -6.07
C13G G113A A118C | -4.34
C13U | 0.225
C13U C28A G110C G120A | -1.9
C13U G45C C73U C123A | 0.429
C15G C40U C56A C73U C80A C124G | -5.12
U14A A24G G61C C89G A91C C101A U112A G122U U125A | -6.22
C13U G110A | -0.303
C15A C72A | -1.94
C15A C72U | -2.75
C15G G71A U81C | -4.61
C15G G48A C85G | -3.62
C13U C72A C101A C114A | -1.86
U14A G45A G47U G52A C86A | -3.59
C15A G47U G127C | -5.43
C13U C70A C72U | -1.42
C13U A29U A46U C56A C97U | -3.44
U14G U78A G117A G120A | -2.29
C13U C28G A43G C62U G110C | -1.17
C13U A41G A46G C53A U78C | -0.474

Variant | polymerase ribozyme fitness (log ratio)
C13U A16C G48C U59G G60U A100C A121C | -0.128
C13G G120U | -0.586
C13G G120C | 0.441
C13U C34U | -4.26
C15G A37G C62U C76U A118U C124U | -2.37
U14G C62U U78C | -2.77
C15A C85G C94A | -3.92
C13U U126A | -1.64
C13U G117U | -2.13
C13U A46U G110A A111C A119C | -5.5
U14G C101G | -3.2
U14G A95G | -2.23
U14G A95U | -2.44
C15A A41C | -3.59
U14G G58A A95U G117C | -5.13
C15A G47U | -4.02
C15G C73U G107U G117C | -3.77
C13U C28G C34G C49A C76A A100C U109A C123G | -6.13
U14A A26U | -5.1
C15A C76U C79A C104A C123A | -4.6
C15G C22U A37G U38G G63C G110C | -5.93

Variant | polymerase ribozyme fitness (log ratio)
C13U A37U | 0.687
C13U A37C U55A | -0.3
U14G G44C C86U C89U G120A | -2.75
C15A A43G C53U | -3.68
U14A C31U U32G C53G C80A C104U G120C G135U | -7.94
C13U C20U G63U | -2.31
C15G C56U A83U C115G C123A | -4.36
C15A G47U C64U C123U | -2.43
C15A U33C C70U A111U | -5.94
C13U G17A A43C U59C U132C | -4.55
C15A G71U C104A | -4.07
C15G G48A U78G C97U A111U | -6.43
U14A G39A U55A U78C G117C | -7.2
C15A G57A U78A G110U C124G | -3.91
C13U G51U G61A C88U U106A | -2.6
U14G A43U G63C G71U C88G | -7.34
C13U A26U | -3.03
U14C C62U | -1.6
U14A G48U U59G | -2.71
C15A C53G C102U | -4.5
C13U G45C C70U C124A | -0.034

Variant | polymerase ribozyme fitness (log ratio)
C15A G23U C72G C98A C114G U116A | -7.66
C15G C98U A111G | -5.41
U14A A29G U55C C72U C86U | -4.41
C13U C70U U109A U132A | -6.56
C15G C88G G120C | -1.47
U14A C70G | -3.97
C13U G45U A84G A121U | 0.667
C13U A100U C101U C104U A121C | 1.33
C13U A27U C72A U130A | -2.6
U14A G19U U32G U81G A100G G120C | -7.12
C13U G45U U55C C70U G93U | -3.96
C13U C73U C124U G127A | 0.275
U14C G44A A46U A75G A95U | -3.28
C13U G45A G51U C115A | -3.13
C15A U92A | -4.5
U14A G19A G42U A43C C70A | -6.34
C15A C56U U59C C64U A84U C98G G110A | -7.69
C15G A43U C64A A84G C85G A90C U112G U132C | -6.82
C15G U96G G120A | -1.53
C13U G48A C98U G122A G128C G135U | -1.66
